Test results as given in publication PMC11811267 (Journal of Separation Science, 2025).

Assays:
Type in all cases: in vitro ADME
[1] = Autosampler (re-injection) stability at 4°C for 24 h; details: autosampler (AS) 4°C, triplicate, 2D-LC-MS/MS
Experimental: (§1) The stability tests of all insulins were performed at two concentration levels (193 and 7752 pg/mL). One set of tests was performed with artificial plasma and the other set with artificial plasma containing 1% PIC. Each concentration level was tested in triplicate. These QC samples were quantified using an artificial plasma calibration curve without PIC, and the obtained concentrations were compared with the nominal concentrations of the low quality control (LQC) and high quality control (HQC), which were set to 100%. To evaluate the stability of insulins in artificial plasma containing 1% PIC, we considered the concentration measured at time zero as the baseline (100%). All subsequent changes in concentration were calculated relative to this initial measurement.
(§2) Short‐term stability, long‐term stability, and freeze‐thaw stability were evaluated in this study. LQC and HQC samples were stored at room temperature and in a refrigerator for 3, 6, and 24 h to assess short‐term (bench‐top) stability and at 4°C in the autosampler for 24 h to assess re‐injection stability.

[2] = Freeze-thaw stability in artificial plasma after storage at −80°C; details: stored at −80°C, triplicate, 2D-LC-MS/MS; for 24 h, change (%): cycle at 24 h; for 48 h, change (%): cycle at 48 h; for 72 h, change (%): cycle at 72 h
Experimental: as §1, §2

[3] = Long-term stability in artificial plasma at −20°C; details: triplicate, 2D-LC-MS/MS
Experimental: as §1, §2

[4] = Long-term stability in artificial plasma at −80°C; details: triplicate, 2D-LC-MS/MS
Experimental: as §1, §2

[5] = extracted samples from artificial plasma with 1% PIC, 193 pg/mL, % of concentration at time zero (=100%)
[6] = extracted samples from artificial plasma with 1% PIC, 7752 pg/mL, % of concentration at time zero (=100%)
[7] = extracted samples from artificial plasma without PIC, 193 pg/mL, % of nominal concentration (=100%)
[8] = extracted samples from artificial plasma without PIC, 7752 pg/mL, % of nominal concentration (=100%)
[9] = artificial plasma (BZ273) with 1% PIC, 193 pg/mL, % of concentration at time zero
[10] = artificial plasma (BZ273) with 1% PIC, 7752 pg/mL, % of concentration at time zero
[11] = artificial plasma (BZ273) without PIC, 193 pg/mL, % of nominal concentration
[12] = artificial plasma (BZ273) without PIC, 7752 pg/mL, % of nominal concentration
[13] = artificial plasma (BZ273) without PIC, 7752 pg/mL, % of nominal concentration, listed as Insulin aspart

detemir
24 h AS, change (%) [1, 5]: <LLOQ
24 h AS, change (%) [1, 6]: 66.0%
24 h AS, change (%) [1, 7]: 98.4%
24 h AS, change (%) [1, 8]: 93.7%
24 h, change (%) [2, 9]: 115.2%
24 h, change (%) [2, 10]: 375.0%
24 h, change (%) [2, 11]: 253.5%
24 h, change (%) [2, 12]: 168.5%
48 h, change (%) [2, 9]: 140.6%
48 h, change (%) [2, 10]: 344.2%
48 h, change (%) [2, 11]: 349.6%
48 h, change (%) [2, 12]: 195.4%
72 h, change (%) [2, 9]: 116.7%
72 h, change (%) [2, 10]: 285.9%
72 h, change (%) [2, 11]: 243.7%
72 h, change (%) [2, 12]: 161.5%
1 week, change (%) [3, 9]: <LLOQ
1 week, change (%) [3, 10]: 71.2%
1 week, change (%) [3, 11]: <LLOQ
1 week, change (%) [3, 12]: 27.0%
2 weeks, change (%) [3, 9]: <LLOQ
2 weeks, change (%) [3, 10]: 71.8%
2 weeks, change (%) [3, 11]: <LLOQ
2 weeks, change (%) [3, 12]: 24.8%
3 weeks, change (%) [3, 9]: <LLOQ
3 weeks, change (%) [3, 10]: 62.2%
3 weeks, change (%) [3, 11]: <LLOQ
3 weeks, change (%) [3, 12]: 21.9%
1 week, change (%) [4, 9]: <LLOQ
1 week, change (%) [4, 10]: 139.1%
1 week, change (%) [4, 11]: 64.2%
1 week, change (%) [4, 12]: 63.2%
2 weeks, change (%) [4, 9]: <LLOQ
2 weeks, change (%) [4, 10]: 173.5%
2 weeks, change (%) [4, 11]: 50.5%
2 weeks, change (%) [4, 12]: 54.7%
3 weeks, change (%) [4, 9]: <LLOQ
3 weeks, change (%) ([4]; artificial plasma (BZ273) with 1% PIC, 193 pg/mL, % of concentration at time zero, listed as Insulin detemir): < LLOQ
3 weeks, change (%) [4, 10]: 154.5%
3 weeks, change (%) [4, 11]: 34.1%
3 weeks, change (%) [4, 12]: 49.4%

glulisine
24 h AS, change (%) [1, 5]: 93.2%
24 h AS, change (%) [1, 7]: 97.6%
24 h AS, change (%) [1, 8]: 82.2%
24 h, change (%) [2, 9]: 79.0%
24 h, change (%) [2, 10]: 93.1%
24 h, change (%) [2, 11]: 99.0%
24 h, change (%) [2, 12]: 92.3%
48 h, change (%) [2, 9]: 106.9%
48 h, change (%) [2, 10]: 119.5%
48 h, change (%) [2, 12]: 95.2%
72 h, change (%) [2, 9]: 92.4%
72 h, change (%) [2, 10]: 95.0%
72 h, change (%) [2, 11]: 106.5%
72 h, change (%) [2, 12]: 81.1%
1 week, change (%) [3, 9]: 51.7%
1 week, change (%) [3, 10]: 55.6%
1 week, change (%) [3, 11]: 99.7%
1 week, change (%) [3, 12]: 86.2%
2 weeks, change (%) [3, 9]: 36.7%
2 weeks, change (%) [3, 10]: 143.0%
2 weeks, change (%) [3, 12]: 84.0%
3 weeks, change (%) [3, 9]: 29.2%
3 weeks, change (%) [3, 10]: 31.5%
3 weeks, change (%) [3, 11]: 84.8%
3 weeks, change (%) [3, 12]: 79.8%
1 week, change (%) [4, 10]: 88.1%
1 week, change (%) [4, 11]: 103.5%
1 week, change (%) [4, 12]: 84.5%
2 weeks, change (%) [4, 10]: 117.9%
2 weeks, change (%) [4, 11]: 102.7%
2 weeks, change (%) [4, 12]: 83.7%
3 weeks, change (%) [4, 9]: 79.1%
3 weeks, change (%) [4, 10]: 95.2%
3 weeks, change (%) [4, 11]: 98.8%
3 weeks, change (%) [4, 12]: 75.6%

insulin aspart
24 h AS, change (%) [1, 6]: 125.7%
24 h AS, change (%) [1, 7]: 92.6%
24 h, change (%) [2, 9]: 111.6%
24 h, change (%) [2, 10]: 117.4%
24 h, change (%) [2, 11]: 90.4%
24 h, change (%) [2, 12]: 100.00%
24 h, change (%) [2, 13]: 100.0%
48 h, change (%) [2, 9]: 111.6%
48 h, change (%) [2, 10]: 115.5%
48 h, change (%) [2, 11]: 98.1%
72 h, change (%) [2, 9]: 93.7%
72 h, change (%) [2, 10]: 99.8%
72 h, change (%) [2, 11]: 85.7%
72 h, change (%) [2, 12]: 92.10%
72 h, change (%) [2, 13]: 92.1%
1 week, change (%) [3, 9]: 70.7%
1 week, change (%) [3, 10]: 72.2%
1 week, change (%) [3, 11]: 105.6%
1 week, change (%) [3, 12]: 104.3%
2 weeks, change (%) [3, 9]: 58.4%
2 weeks, change (%) [3, 10]: 62.5%
2 weeks, change (%) [3, 11]: 107.3%
2 weeks, change (%) [3, 12]: 100.2%
3 weeks, change (%) [3, 9]: 39.5%
3 weeks, change (%) [3, 10]: 35.8%
3 weeks, change (%) [3, 11]: 101.4%
3 weeks, change (%) [3, 12]: 95.2%
1 week, change (%) [4, 9]: 116.5%
1 week, change (%) [4, 10]: 123.4%
1 week, change (%) [4, 11]: 106.0%
1 week, change (%) [4, 12]: 104.7%
2 weeks, change (%) [4, 9]: 99.6%
2 weeks, change (%) [4, 10]: 106.6%
2 weeks, change (%) [4, 12]: 97.2%
3 weeks, change (%) [4, 9]: 93.4%
3 weeks, change (%) [4, 10]: 108.9%
3 weeks, change (%) [4, 11]: 97.8%
3 weeks, change (%) [4, 12]: 92.8%
